According to patent publication US20030199077:

T1: trypsin inhibitor type IV-0 (Ovo-inhibitor), Sigma T-1886 (UniProt P10184)
T1 sequence: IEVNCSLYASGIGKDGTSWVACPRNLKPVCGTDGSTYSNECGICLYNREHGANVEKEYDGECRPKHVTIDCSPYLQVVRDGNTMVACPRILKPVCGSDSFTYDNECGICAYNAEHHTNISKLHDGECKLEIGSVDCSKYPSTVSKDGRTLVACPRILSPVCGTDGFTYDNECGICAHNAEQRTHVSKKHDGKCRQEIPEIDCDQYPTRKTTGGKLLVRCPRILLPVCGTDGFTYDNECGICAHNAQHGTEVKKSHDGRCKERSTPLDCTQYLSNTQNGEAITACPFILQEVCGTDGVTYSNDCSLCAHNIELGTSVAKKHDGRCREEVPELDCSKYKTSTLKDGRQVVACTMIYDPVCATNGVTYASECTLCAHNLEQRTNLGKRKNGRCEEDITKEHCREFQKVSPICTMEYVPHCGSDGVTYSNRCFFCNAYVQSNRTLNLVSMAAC

T2: trypsin inhibitor type IV-0 (Ovo-inhibitor), Sigma T-1886, P10184
T2 chain: T1 sequence

B1: Savinase® (subtilisin 309 from B. lentus, BLSAVI) (protein)
chain: AQSVPWGISRVQAPAAHNRGLTGSGVKVAVLDTGISTHPDLNIRGGASFVPGEPSTQDGNGHGTHVAGTIAALNNSIGVLGVAPSAELYAVKVLGASGSGSVSSIAQGLEWAGNNGMHVANLSLGSPSPSATLEQAVNSATSRGVLVVAASGNSGAGSISYPARYANAMAVGATDQNNNRASFSQYGAGLDIVAPGVNVQSTYPGSTYASLNGTSMATPHVAGAAALVKQKNPSWSNVQIRNHLKNTATSLGSTNLYGSGLVNAEAATR

Biological target: T1, trypsin inhibitor type IV-0 (Ovo-inhibitor), Sigma T-1886

| Molecule | Residual Activity (%) |
| --- | --- |
| Savinase variant S99SD | 25% |
| Savinase variant S99SD+S99A+D42DN | 69.2% |
| Savinase variant A98AI+A98G+S99H+G100S+S101A | 22% |
| Savinase variant S99SD+S99A+P131T | 35.6% |
| Savinase variant S99SE | 27% |
| Savinase variant S99SN | 19% |
| Savinase variant S99SD+S99A+S216SDP | 35% |
| Savinase variant S99SD+S99A+T143K | 23% |
| Savinase variant S99SD+S99A+L217LP | 97% |
| Savinase variant S99SD+N76D+A194P+A230V | 18.4% |
| Savinase variant S99SD+S99A+L217F+A228V+A230V | 12% |
| Savinase variant S99SD+S99A+A133E | 39% |
| Savinase variant S99SD+S99A | 27.3% |
| Savinase variant S99SD+S99A+S216SP | 29.2% |
| Savinase variant S99SQ+S99T | 25% |
| Savinase variant S99SD+M222S | 25% |
| Savinase variant S99SR+S99T | 67.7% |
| Savinase variant S99SD+S99A+P129PR | 21% |
| Savinase variant A98AT+Y167A+R170S+A194P | 88% |
| Savinase variant S99SD+S99A+P129PD | 50% |

Biological target: T2, trypsin inhibitor type IV-0 …

| Molecule | Residual Activity (%) |
| --- | --- |
| B1 | <5% |
